Read-outs that look alike come from different tables or passages of the source.
Legend:
[1] = biological target: T1, human protein C (PC) zymogen (human, UniProt P04070 43-197; P04070 200-461); assay: ELISA screen, PC-coated wells, OD450, n=2 [Continued]
T1 construct: Bought

[2] = biological target: T2, human APC-PPACK (active site-blocked APC) (human, UniProt P04070 43-461, active site bound by the tripeptide inhibitor Phe-Pro-Arg-chloromethylketone (PPACK)); assay: ELISA
T2 construct: Bought (Haematologic Technologies)
T2 sequence (P04070 other isoform, or with tags, fused parts or gaps): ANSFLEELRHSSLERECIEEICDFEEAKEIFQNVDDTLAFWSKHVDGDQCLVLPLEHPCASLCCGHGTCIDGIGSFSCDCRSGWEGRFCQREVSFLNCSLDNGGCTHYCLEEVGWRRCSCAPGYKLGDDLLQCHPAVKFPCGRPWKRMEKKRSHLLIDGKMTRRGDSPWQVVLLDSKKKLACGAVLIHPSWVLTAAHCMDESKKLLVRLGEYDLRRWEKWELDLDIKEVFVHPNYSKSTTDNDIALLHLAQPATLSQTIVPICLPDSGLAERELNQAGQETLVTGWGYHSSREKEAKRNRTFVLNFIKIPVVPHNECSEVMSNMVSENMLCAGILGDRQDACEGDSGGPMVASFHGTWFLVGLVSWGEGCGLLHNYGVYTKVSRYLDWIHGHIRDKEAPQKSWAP

[3] = biological target: T1, human protein C (PC) zymogen; assay: ELISA screen, PC-coated wells, OD450, n=2 [Continued]; remark: listed apart in the source

T1 sequence (P04070 43-197, chain 1 of 2): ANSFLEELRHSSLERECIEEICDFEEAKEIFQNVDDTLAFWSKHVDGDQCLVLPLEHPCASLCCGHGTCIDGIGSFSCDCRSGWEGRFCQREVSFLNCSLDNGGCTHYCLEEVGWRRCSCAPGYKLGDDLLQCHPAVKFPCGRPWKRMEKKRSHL
T1 sequence (P04070 200-461, chain 2 of 2): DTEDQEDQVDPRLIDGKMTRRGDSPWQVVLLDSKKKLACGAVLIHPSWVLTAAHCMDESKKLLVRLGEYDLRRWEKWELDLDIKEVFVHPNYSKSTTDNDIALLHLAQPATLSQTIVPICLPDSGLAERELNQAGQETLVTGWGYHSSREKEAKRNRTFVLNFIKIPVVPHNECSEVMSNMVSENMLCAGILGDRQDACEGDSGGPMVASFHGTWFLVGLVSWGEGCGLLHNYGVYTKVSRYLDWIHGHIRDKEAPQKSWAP

Row | binding result [1] | binding result [2] | binding result [3] | Binder
1 | no binding |  |  | SR16983-R3-P2-B05 (VHH, The cell prints 55 (a CDR1 entry); to be checked) VHH: QLQLVESGGGLVQAGGSLRLSCAASGTTSSLNLMGWYRQAPGKKRESVAHMTSDGRTDYVDSVKGRFTISRDNSKNTVYLQMNNLKPEDTAVYICYANPFLGSWSNYWGQGTQVTVSS
2 |  | binds | no binding | SR16983-R4-P1-A12 (VHH) VHH: QLQLVESGGGLVQAGGSLRLSCAASGTTSSLNLMGWYRQAPGKKRESVAHMTSDGDTDYVDSVKGRFTISRDNSKNTVYLQMNNVKPEDTAVYYCYANPFLGSWSNYWGQGTQVTVSS
3 |  | binds | no binding | SR16983-R2-P4-H08 (VHH) VHH: QLQLVESGGGLMQAGGSLRLSCAASGTTSSLNLMGWYRQAPGKKRESVAHMTSDGRTDYTDSVKGRFTISRDNSKNTVYLQMNNLKPEDTAVYYCYANPFLGSWSNYWGQGTQVTVSS
4 | no binding | binds |  | SR16983-R4-P1-C10 (VHH) VHH: QVQLVESGGGLVQAGGSLRLSCVAYGSTFSINVFAWYRQAPGEQRELGELVAFIGRSGTTKYGDSVKGRFTISRDNAKNTVYLQMDSLRPEDTAVYYCNLGDYWGQGTQVTVSS
5 | no binding | binds |  | SR16983-R2-P4-E11 (VHH) VHH: QLQLVESGGGLVQAGGSLRLSCAASGTTFSFVYMGWYRQAPGNQRDLVARISRDGSTNYLDSVKGRFTISGDNAKNTVYLQMNSLKPEDTARYYCFYNGHLNKWGRGTQVTVSS
6 | no binding | binds |  | SR16983-R3P2D01 (VHH) VHH: QLQLVESGGGLVQAGGSLRLSCAASGTTSSFVYMGWYRQAPGNQRDLVARISSDGSTNYADSVKGRFTISGDNAKNTVYLQMNSLKPEDTARYYCFYNGHVNKWGQGTQVTVSS
7 | no binding | binds |  | SR16983-R3-P4-E11 (VHH) VHH: QLQLVEFGGGLVQAGGSLRLSCAASGSTFSFNYMGWYRQAPGNQRDLVARISSGGITNYADSVKGRFTISGDNAKNTVYLQMNSLKPEDTARYYCFYNGYLNKWGQGTQVTVSS
8 | no binding | binds |  | SR16983-R2-P4-E08 (VHH) VHH: QLQLVESGGGLVQAGGSLTLSCAASGFTLDDYAIGWFRQAPGKEREGVSCIATSDGSTYYADSVKGRFTISSDNAKNTVYLQMNSLKPEDTAVYYCARGGLLLPKPELFDFRGQGTQVTVSP
9 | no binding | binds |  | SR16983-R3-P3-G04 (VHH) VHH: QLQLVESGGGLVQAGGSLRLSCTASGSTVRVTAGGWYRQAPGNERELVADIDNGGRPTYADSVKGRFTISRDNAKNAVDLQMNNLKPEDTAVYYCFVIAIPDSAPRPRAYWGQGTQVTVSS
10 | no binding | binds |  | SR16983-R3-P4-G09 (VHH) VHH: QLQLVESGGGLVQAGGSLRLSCAASGSTVRVTAGGWYRQTPGNERELVADIDNGGSTTYADSVKGRFTISRDNAKNAVDLQMNSLKPEDTAVYRCFVIAIPDSAPRPRSYWGQGTEVTVSS
11 | no binding | binds |  | SR16983-R2-P4-F01 (VHH) VHH: QLQLVESGGGLVQAGGSLRLSCAASGRTFVGSYVMGWFRQAPGKAREFVAASSRSTGNTVYLDAVKGRFTVSRDDAKNTLYLQMSSLKPEDTAVYYCATRASINYNYANWPYWGQGTQVTVSS
12 | no binding | binds |  | SR16983-R2-P4-C02 (VHH) VHH: QVQLVESGGGLVQAGGSLRLSCTTSGSTFSITAGGWYRQAPGKQRELVADIANDGSTTSADSVKGRFTISRDNAKNTVELQMSSLKLEDTAVYYCFVVGKSDSMPRARAYWGQGTQVTVSS
13 | no binding | binds |  | SR16983-R3-P5-D08 (VHH) VHH: EVQLVESGGGLVQAGGSLRLSCTGSGSTFSVTAGGWYRQAPGKQRELVADIANDGSTTYLDFVKGRFTISRDNAKNSVDLQMNSLKPEDTAVYYCFVVGISDSTPRPRAYWGQGTQVTVSS
14 | no binding | binds |  | SR16983-R3P2H09 (VHH) VHH: EVQLVESGGGLVQAGGSLRVSCTTSGSTFSITAGGWYRQTPGKERELVADIANDGSTTYANSVKGRFTISRDNAKNTVELQMSSLKLEDTAAYRCFVVGISDSMPRPRAYWGQGTQVTVSS
15 | no binding | binds |  | SR16983-R2-P4-G08 (VHH) VHH: EVQLVESGGGLVQAGGSLRLSCAASGLTSSTYAMAWFRQAPGKEREFVSVIDWRGSTTYTNSVKGRFTISRDNGKNTVYLQMNSLQPEDTALYYCAARASPGYVGSLYPYWGRGTQVTVSS
16 | no binding | binds |  | SR16983-R3P2A08 (VHH) VHH: QLQLVESGGGLVQPGGSLRLSCAASGFTFSTKWMYWVRQGPGKGLERVAAIDASGGSTYYADSVKGRFTISRDNSENTVYLQMNSLESADTAVYYCARSEGGLFRGRGTQVTVSA
17 | no binding | binds |  | SR16983-R3P2A5 (VHH) VHH: QLQLVESGGGLVQPGGSLRLSCAASGFTFSTKWMYWVRQGPGKGLERVAAIDASGGSTYYADSVKGRFTISRDNSENTLYLQMNSLESADTAVYYCARSEGGLFRGRGTQVTVSA
18 | no binding | binds |  | SR16983-R2P1C12 (VHH) VHH: QVQLVESGGGLVQPGGSLRLSCAASGFTFSMKWMYWVRQGPGKGLEWVSTIDTSGSSTYYADSVKGRFTISRDNSKNTVYLQMNSLESADTAVYYCARSAGGLFRGRGTQVTVSS
19 | no binding | binds |  | SR16983-R2-P3-F01 (VHH) VHH: EVQLVESGGGLVQPGGSLRLSCAASGFTFSTKWMYWVRQGPGKGLEWVSTIDASGGSTYYADSVKGRFTISRDNTEKKVYLQMNSLESADTAVYYCVRSAGGQFRGRGTQVTVSS
20 | no binding | binds |  | SR16983-R2-P3-F10 (VHH) VHH: QVQLVESGGGLVQPGGSLRLSCKASGFTFSTKWMYWVRQGPGKGLERVAAIDASGGSTYYADSVKGRFTISRDNSDNTVYLQMNSLESADTAVYYCARSEGGQFRGQGTQVTVSS
21 | no binding | binds |  | SR16983-R2-P3-B01 (VHH) VHH: QLQLVESGGGLVQAGGSLRLSCAASGRTFGTYVIGWFRQAPGKEREFVAAFSRSTGNTVYPDSVKGRFTISRDDAKNTVTLQMNSLKPEDTAVYYCAARASINYNYANWPYWGQGTQVTVSS
22 | no binding |  |  | SR16983-R2-P3-E06 (VHH) VHH: QLQLVESGGGLVQAGGSLRLSCVASGRTVGSYAVAWFRQAPGKERELLAASSRSTGNTVYADSVKGRFTIARDDAKNTLYLQMNSLKPEDTAVYYCAARASINYNYANWPYWGQGTQVTVSS
23 | no binding | binds |  | SR16983-R2-P3-F12 (VHH) VHH: QVQLVESGGGLVQAGGSLRLSCAASGRTFGTYVMGWFRQAPGKEREFVAAFSRSTGSTTYADSVKGRFTISRDDAKNTLYLQMNSLKPEDTAVYYCATRASINYNYANWPYWGQGTQVTVSS
24 | no binding |  |  | SR16983-R3-P5-G12 (VHH) VHH: QLQLVESGGGLVQAGGSLRLSCVASGRTVGSYAVAWFRQAPGKERELLAASSRSTGNTVYADSVKGRFTIARDDAKNTLYLQMNSLKPEDTAVYYCAARASINYNYANWPYWGQGTQVTVSS
25 | no binding | binds |  | SR16983-R2-P4-F03 (VHH) VHH: QVQLVESGGGLVQAGGSLRLSCAASGRTFGSYVMGWFRQAPGKEREFLAAFSRSTGSTVYADSVKGRFTISKDDAKNTLYLQMNSLKPEDTAVYYCATRASINYNYANWPYWGQGTQVTVSS
26 | no binding | binds |  | SR16983-R2-P3-E04 (VHH) VHH: QLQLVESGGGLVQAGGSLRLSCAASGRTVGSYVMGWFRQAPGKEREFLAASSRSTGNTVYADSVKGRFSISRDDAKNTLYLQMNSLKPEDTAVYYCATRASINYNYANWPYWGQGTQVTVSS
27 | no binding | binds |  | SR16983-R3-P3-H10 (VHH) VHH: QVQLVESGGGLVQAGDSLRLSCAASTRTVGTYVMGWFRQAPGKERELVAASSRSTGNTVYPDSVKGRFTVSRDDAKNALYLQMNSLKPEDTAIYYCAARASINYNYANWPYWGQGTQVTVSS
28 | no binding | binds |  | SR16983-R3-P3-C10 (VHH) VHH: QLQLVESGGGLVQAGGSLRLSCAASGRTVGSYAMGWFRQAPGKEREFLAAFSRSTGPTVYADSVKGRFTISRDDAKNTLYLQMNSLKPEDTAVYYCAARASINYNYANWPYWGQGTQVTVSS
29 | no binding | binds |  | SR16983-R3-P5-H06 (VHH) VHH: QLQLVESGGGLVQAGGSLRLSCAASGRTFGTYVIGWFRQAPGKEREFVAAFSRSTGNTVYPDSVKGRFTISRDDAKNTVYLQMNSLKPEDTAVYYCAARASINYNYANWPYWGQGTQVTVSS

Source: patent US20250163183A1 (COAGULANT THERAPEUTICS, published 2025)
